Results from the supplement of paper PMC11136658.

Tested on: peptide library, one residue held at a place counted from the Y acceptor
Test: relative phosphorylation of the sub-library (ratio to the mean residue at this position); higher = residue favoured
Summary of the method: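 In 384-well plates, purified recombinant kinases were incubated for 90 min with 50 μM ATP containing γ-32P-ATP and biotinylated Tyr-centred peptide libraries, each mixture fixing one residue at a single position between −5 and +5. After capture on streptavidin membranes and rinsing, peptides were quantified by phosphorimaging with ImageQuant. Per-position intensities were scaled to the sum of the 18 (Ser/Thr-free library: 16) randomized residues, then multiplied by that number.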

Chain of FYN, construct: Full length, human (P06241 whole entry, looked up): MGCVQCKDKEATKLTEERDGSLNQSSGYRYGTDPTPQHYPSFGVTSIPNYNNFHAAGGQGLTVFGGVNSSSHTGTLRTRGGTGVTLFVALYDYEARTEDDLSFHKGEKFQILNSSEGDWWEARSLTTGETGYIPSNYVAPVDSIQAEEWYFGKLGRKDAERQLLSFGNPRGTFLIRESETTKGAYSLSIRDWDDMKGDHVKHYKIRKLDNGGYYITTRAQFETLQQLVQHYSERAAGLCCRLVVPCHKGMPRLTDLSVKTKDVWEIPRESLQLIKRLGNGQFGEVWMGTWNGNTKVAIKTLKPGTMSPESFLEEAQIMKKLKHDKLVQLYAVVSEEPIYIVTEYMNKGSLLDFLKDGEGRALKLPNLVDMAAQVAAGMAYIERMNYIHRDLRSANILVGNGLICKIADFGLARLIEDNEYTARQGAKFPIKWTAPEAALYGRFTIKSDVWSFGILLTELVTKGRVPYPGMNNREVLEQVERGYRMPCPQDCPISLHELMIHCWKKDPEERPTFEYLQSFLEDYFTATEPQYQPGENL
Chain of FRK, construct: aa208-end, human (P42685 208-505, looked up): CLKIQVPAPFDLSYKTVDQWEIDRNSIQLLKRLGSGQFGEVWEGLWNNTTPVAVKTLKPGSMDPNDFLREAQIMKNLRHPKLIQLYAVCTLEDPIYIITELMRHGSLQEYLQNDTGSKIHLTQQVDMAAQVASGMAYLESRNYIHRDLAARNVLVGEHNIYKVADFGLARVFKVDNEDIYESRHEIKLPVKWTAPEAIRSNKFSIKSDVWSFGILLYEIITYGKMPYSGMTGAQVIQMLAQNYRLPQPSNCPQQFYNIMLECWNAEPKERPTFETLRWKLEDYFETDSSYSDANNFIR
Chain of FLT4, construct: aa800-end, human (P35916 800-1363, looked up): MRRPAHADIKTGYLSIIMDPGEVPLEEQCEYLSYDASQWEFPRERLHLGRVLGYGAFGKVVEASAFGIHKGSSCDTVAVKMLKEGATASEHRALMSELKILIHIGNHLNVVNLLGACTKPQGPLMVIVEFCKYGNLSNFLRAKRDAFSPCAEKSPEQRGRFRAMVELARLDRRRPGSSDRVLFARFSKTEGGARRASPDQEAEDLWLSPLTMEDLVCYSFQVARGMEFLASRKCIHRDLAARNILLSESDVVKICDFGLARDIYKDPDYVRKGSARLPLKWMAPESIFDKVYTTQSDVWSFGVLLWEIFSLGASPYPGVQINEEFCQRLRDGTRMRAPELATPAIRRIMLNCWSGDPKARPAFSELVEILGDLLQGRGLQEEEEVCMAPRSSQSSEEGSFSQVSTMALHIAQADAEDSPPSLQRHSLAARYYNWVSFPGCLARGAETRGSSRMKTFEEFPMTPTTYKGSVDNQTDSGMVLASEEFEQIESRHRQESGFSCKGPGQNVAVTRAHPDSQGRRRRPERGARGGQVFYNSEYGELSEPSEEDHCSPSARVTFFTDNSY
Chain of HCK, construct: aa230-497, human (P08631 230-497, looked up): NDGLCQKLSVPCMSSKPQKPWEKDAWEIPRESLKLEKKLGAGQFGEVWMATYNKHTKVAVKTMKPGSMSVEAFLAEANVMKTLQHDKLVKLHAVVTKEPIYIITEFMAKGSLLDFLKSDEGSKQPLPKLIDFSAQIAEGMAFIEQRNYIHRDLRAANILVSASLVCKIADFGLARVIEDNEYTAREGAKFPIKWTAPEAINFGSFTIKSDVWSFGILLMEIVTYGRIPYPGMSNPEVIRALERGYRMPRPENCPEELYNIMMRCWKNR

FLT4, construct: aa800-end, human (from UniProt P35916)
relative phosphorylation
Conditions	at +1	at +2	at +3	at +4	at +5	at -1	at -2	at -3	at -4	at -5
A fixed	0.654	0.524	0.48	0.749	0.758	0.638	0.879	0.799	0.976	0.878
D fixed	0.367	0.647	0.424	0.913	1.12	2.84	1.25	1.3	1.05	1.04
E fixed	0.448	0.846	0.366	0.895	0.95	1.93	1.3	1.34	1.16	0.956
F fixed	2.19	1.57	3.08	1.07	1.31	1.09	0.748	1.04	1.14	1.12
G fixed	0.351	0.332	0.713	1.01	0.98	0.492	0.949	0.888	0.967	0.956
H fixed	1.08	1.05	0.595	1.33	1.12	1.24	1.16	1.16	1.08	1.27
I fixed	1.69	1.02	1.82	0.723	0.927	1.05	0.825	0.743	0.798	0.898
K fixed	0.643	0.864	0.396	1.16	1.01	0.439	0.921	0.964	0.992	1.08
L fixed	1.06	1.36	2.1	0.856	1.06	0.746	0.887	0.845	0.928	0.853
M fixed	1.02	1.07	1.98	0.98	0.991	0.655	0.962	0.853	0.837	0.953
N fixed	0.534	0.899	0.389	0.868	1.1	1.6	1.2	1.24	0.896	1.08
P fixed	0.571	0.471	0.588	1.17	1.04	0.583	0.945	0.8	0.915	0.822
Q fixed	1.25	0.896	0.59	1.09	0.967	1.15	1.16	1.11	1.08	1.07
R fixed	0.734	1.3	0.554	1.37	1.01	0.507	1.17	1.09	1.14	1.24
S fixed	0.599	0.684	0.506	0.92	0.829	0.657	1.08	1.09	0.843	0.921
T fixed	0.9	0.895	0.72	0.848	0.771	0.792	0.899	1.01	0.74	0.848
V fixed	2.12	0.975	1.4	0.751	0.774	0.892	0.766	0.712	0.844	0.777
W fixed	1.78	2.6	1.3	1.3	1.28	0.706	0.895	1.03	1.61	1.23
pThr fixed	0.737	1.37	0.521	0.8	1.08	1.47	0.969	1.13	1.03	0.981
pTyr fixed	2.51	2.96	0.651	0.9	0.834	3.16	1.24	1.38	1.29	1.06

FRK, construct: aa208-end, human (from UniProt P42685)
relative phosphorylation
Conditions	at +1	at +2	at +3	at +4	at +5	at -1	at -2	at -3	at -4	at -5
A fixed	1.2	0.883	0.702	0.821	1.01	0.594	1.14	0.808	1.11	1.05
D fixed	0.563	0.473	0.24	0.573	0.93	0.836	1.19	1.92	1.14	1.12
E fixed	2.3	0.65	0.193	0.549	0.861	1.92	1.73	2.11	1.84	0.931
F fixed	1.03	1.6	1.95	1.38	1.21	0.878	0.642	0.892	1.03	1.07
G fixed	0.519	0.445	0.589	1.01	0.861	0.34	1.13	1.09	1.27	1.21
H fixed	0.91	0.758	0.741	1.32	1.15	0.777	1.02	0.902	0.913	0.993
I fixed	1.54	1.29	2.29	0.88	0.807	3.11	1.1	0.761	0.923	1.07
K fixed	0.343	0.897	0.475	1.23	1.06	0.27	0.568	0.631	0.719	0.858
L fixed	1.25	1.36	1.56	0.937	1.01	2.46	0.895	0.852	0.993	1.09
M fixed	1.76	0.966	1.3	1.22	0.914	1.13	0.67	0.895	0.929	1.12
N fixed	0.382	1.01	0.568	0.737	0.702	0.573	1.01	1.06	0.888	0.973
P fixed	0.116	0.601	0.87	0.971	1.15	0.452	1.3	1.04	1.1	1.11
Q fixed	1.23	0.748	0.469	0.965	0.974	0.664	1.01	0.838	1.06	0.966
R fixed	0.492	1.11	1.52	1.35	1.2	0.311	0.656	0.674	0.769	0.863
S fixed	0.919	1.09	0.642	0.863	1.01	0.433	1.03	0.938	0.792	0.836
T fixed	0.825	1.17	0.767	0.771	0.853	0.9	0.9	0.882	0.634	0.8
V fixed	1.18	1.21	1.71	0.865	0.934	1.9	1.3	0.778	0.793	0.825
W fixed	1.44	1.73	1.43	1.55	1.36	0.453	0.716	0.929	1.09	1.11
pThr fixed	1.09	1.58	0.217	0.462	0.638	2.06	1.3	1.28	0.91	0.853
pTyr fixed	4.6	2.61	0.782	0.659	0.692	1.06	1.28	1.7	1.57	0.867

FYN, construct: Full length, human (from UniProt P06241)
relative phosphorylation
Conditions	at +1	at +2	at +3	at +4	at +5	at -1	at -2	at -3	at -4	at -5
A fixed	1.68	1.07	0.544	0.857	0.903	0.622	1.04	0.787	1.08	1.02
D fixed	0.925	0.762	0.546	1.02	0.987	0.867	1.77	2.4	1.64	1.5
E fixed	1.79	1.76	0.601	1	0.951	1.08	1.95	2.8	1.89	1.35
F fixed	0.656	1.08	3.35	1.23	1.16	0.885	0.483	0.803	0.997	0.993
G fixed	3.49	0.728	0.941	1.03	1.03	0.467	1.38	0.91	1.17	1.14
H fixed	0.53	0.515	0.732	0.901	1.01	0.419	0.77	0.814	0.726	0.924
I fixed	0.861	1.06	1.72	0.735	0.718	3.38	0.717	0.641	0.796	0.833
K fixed	0.231	0.61	0.397	1.12	1.04	0.221	0.515	0.469	0.622	0.901
L fixed	0.635	1.02	1.39	0.912	0.92	1.76	0.716	0.672	0.906	0.933
M fixed	0.992	1.05	0.894	1.04	0.858	0.806	0.667	0.729	0.784	0.904
N fixed	0.504	0.806	0.455	0.81	1.03	0.33	1.34	1.26	0.903	0.97
P fixed	0.291	0.734	0.571	0.945	1.48	1.2	1.43	0.969	1.32	1.17
Q fixed	0.906	0.951	0.539	1.14	0.81	0.521	1.2	0.965	1.08	0.978
R fixed	0.311	0.79	0.728	1.14	1.22	0.227	0.612	0.56	0.744	0.886
S fixed	1.01	1.32	0.628	0.977	1.03	0.44	1.23	0.945	0.813	0.865
T fixed	0.895	1.39	0.92	0.861	0.996	1.33	0.774	0.79	0.733	0.779
V fixed	0.935	1.28	1.4	0.882	0.722	2.95	0.793	0.649	0.821	0.84
W fixed	1.36	1.08	1.64	1.38	1.14	0.497	0.606	0.838	0.973	1
pThr fixed	1.64	2.15	0.627	0.773	0.686	4.17	1.92	1.58	1.42	1.31
pTyr fixed	3.45	1.96	0.89	1.23	1.11	1.34	1.37	1.71	1.52	1.32

HCK, construct: aa230-497, human (from UniProt P08631)
relative phosphorylation
Conditions	at +1	at +2	at +3	at +4	at +5	at -1	at -2	at -3	at -4	at -5
A fixed	1.66	0.982	0.656	0.876	1.06	0.652	1.08	0.95	1.15	1.1
D fixed	0.917	0.585	0.323	0.623	0.676	0.844	1.29	1.43	1.16	1.18
E fixed	1.55	1.19	0.316	0.766	0.746	1.04	1.49	1.65	1.47	1.01
F fixed	0.785	1	2.12	1.08	1.05	1.09	0.717	1.11	0.966	0.987
G fixed	2.28	0.813	0.862	1.11	1.09	0.456	1.31	1.02	1.31	1.18
H fixed	0.812	0.659	0.992	1.09	0.964	0.768	0.915	1.01	0.85	0.907
I fixed	0.815	1.15	1.84	0.87	0.769	2.91	0.843	0.718	0.977	0.922
K fixed	0.253	0.807	0.675	1.31	1.27	0.259	0.633	0.543	0.629	0.91
L fixed	0.816	1.03	1.49	0.907	0.984	2.15	1	0.956	1.18	1.09
M fixed	1.37	1.13	1.1	1.31	1.06	1.12	0.808	0.964	1.11	1.1
N fixed	0.612	0.95	0.477	0.801	0.853	0.414	1.24	1.15	0.817	0.995
P fixed	0.265	0.975	0.758	0.902	1.26	0.769	1.06	1.06	1.15	1.16
Q fixed	0.923	0.888	0.508	0.99	0.731	0.521	1.04	0.867	0.934	0.99
R fixed	0.369	0.993	1.18	1.49	1.51	0.228	0.667	0.58	0.685	0.772
S fixed	1.12	1.17	0.663	0.972	1.05	0.489	1.18	1.02	0.761	0.942
T fixed	0.97	1.42	0.706	0.924	0.998	1.35	1.01	0.961	0.709	0.845
V fixed	1.14	1.17	1.36	0.872	0.811	2.24	0.95	0.807	0.925	0.912
W fixed	1.34	1.08	1.98	1.11	1.12	0.698	0.771	1.2	1.21	0.99
pThr fixed	0.949	1.18	0.296	0.431	0.421	2.4	1.22	1.12	1.05	1.09
pTyr fixed	1.46	1.61	0.497	0.628	0.569	1.09	1.21	1.37	1.4	1.1
